Substrate in this data set: CCn1c(=NN=c2sc3cc(S(=O)(=O)O)ccc3n2CC)sc2cc(S(=O)(=O)O)ccc21
Description: purified protein. The data set is classed as biochemical, Geothermobacter hydrogeniphilus. As to conditions: 1 mM CuSO4, 20 mM acetate pH 4.0, 60 °C.

B1: Ghlac WT (Geothermobacter hydrogeniphilus) (protein)
chain: MKMARNGKISYLEPEWITGSLRAGFTTRNGGISRAPYNSLNLGLNTEDPRPNVEGNRSTLVRAFGLEVHQLLTVRQVHGNNILVVDEPNPDLSHFQQVECDAIISNQPGMMIGVLVADCYPVLLAAPAQGVVAAVHVGWRGAVAQIIQRTVDALQEQFGVCPEELLAAVGPGIGAHAYEVDRPVRDQFRKAGLPWAGVAEESRLGHWKLDLRETCRRQLLTAGVVRTHIDLAEECTCCHRELLFSHRRDNGRTGRQLGFILLT
notes: codon-optimized in pET-28a(+) NcoI/XhoI; E. coli BL21(DE3)
By Km is commonly meant the concentration of substrate that gives half-maximal velocity. In general, kcat refers to the number of substrate molecules converted per active site and unit of time at saturation. As for B1, the Km was determined as 1300 µM and the catalytic constant (kcat) was found to be 2.095 s⁻¹.
